The data set is described as follows: soluble on expression in E. coli; label from the status in PepcDB or PDB records.
Regarding “MKRPHGYQITSLRADKYGGYYAANFVGNEILYFDVNNNVNALVKDGFSYLKSPYDVIEANNLLYVTLYSSDEIGVYDKVLGVKRKSIGNKGTKDGELLAPQYMAIDKRNYIYVSEWGNKRVSKFGLEGDFILHFGSRTSGYKGLLGPTGVTYLNENIYVADSLRNTIEVFDTSGNHLYSVFTSIEGIEGLSSDFVGNNVIVSSKDGVYKYSIAKKTITKILKADKMNSKISSSILDANNQMIVSDFNNAKVSVYKSDASLYDSLEHHHHHH”, the “soluble on expression in E. coli” value is “soluble”.

Turning to “MKKLLFFTLLLFGVLSVRSLADGCNAQVCMCPNGGYVTTGQYCSTSSGESWIITPIIGTVAIDPATGKWASISNTKDRKEAKNDVLERCGSDCKVFMVDSKRCVGVAYSKSDKIIGSDSATDNFGGIGYNTRVERSNEKALKKCEKNGGKDCKIIANVCAVEGTTKY”, the “soluble on expression in E. coli” value is on record as “not soluble”.

Take “MSQTIGRIEEISFYSASLQDDVTLLVYLPVNYTPLHKHTVVIAQDGRDYFQLGKAHRVIERLRETEEIDRTIIVGIPYKNVHDRKEKYFPNEVKNAAYIRFLAHELAPYIDENYPTYQMGKGRVLIGDSLGGTVSFMTALMYPHTFGKVVMQSPFVDETVMNLAKEFKDPQALELYHVIGTEETAVKRTDGQVSDFVGPNRELNTLLTDRNFITHYEEFEGNHTWKYWQTDLPKAFSHILSMK”: the “soluble on expression in E. coli” value is given as “not soluble”.

Take “MSLQRLLQHSSNGNLADFCAGPAYSSYSTLTGSLTMDDNRRIQMLADTVATLPRGRKQLALTRSSSLSDFSWSQRKLVTVEKQDNETFGFEIQSYRPQNQNACSSEMFTLICKIQEDSPAHCAGLQAGDVLANINGVSTEGFTYKQVVDLIRSSGNLLTIETLNGTMILKRTELEAKLQVLKQTLKQKWVEYRSLQLQEHRLLHGDAANCPSLENMDLDELSLFGPLPGPGPALVDRNRLSSESSCKSWLSSMTMDSEDGYQTCVSEDSSRGAFSRQTSTDDECFIPKEGDDFLRRSSSRRNRSISNTSSGSMSPLWEGNLSSMFGTLPRKSRKGSVRKQLLKFIPGLHRAVEEEESRF”: the “soluble on expression in E. coli” value is reported as “soluble”.

In the case of “GHMYQHHNWQGALLDYPVSKVVCVGSNYAKHIKEMGSAVPEEPVLFIKPETALCDLRQPLAIPSDFGSVHHEVELAVLIGATLRQATEEHVRKAIAGYGVALDLTLRDVQGKMKKAGQPWEKAKAFDNSCPLSGFIPAAEFTGDPQNTTLSLSVNGEQRQQGTTADMIHKIVPLIAYMSKFFTLKAGDVVLTGTPDGVGPLQSGDELTVTFDGHSLTTRVLGS”, the “soluble on expression in E. coli” value is given as “soluble”.

Consider “AHHHHHHGSNKRFPFPVGEPDFIQGDEAIARAAILAGCRFYAGYPITPASEIFEAMALYMPLVDGVVIQMEDEIASIAAAIGASWAGAKAMTATSGPGFSLMQENIGYAVMTETPVVIVDVQRSGPSTGQPTLPAQGDIMQAIWGTHGDHSLIVLSPSTVQEAFDFTIRAFNLSEKYRTPVILLTDAEVGHMRERVYIPNPDEIEIINRKLPRNEEEAKLPFGDPHGDGVPPMPIFGKGYRTYVTGLTHDEKGRPRTVDREVHERLIKRIVEKIEKNKKDIFTYETYELEDAEIGVVATGIVARSALRAVKMLREEGIKAGLLKIETIWPFDFELIERIAERVDKLYVPEMNLGQLYHLIKEGANGKAEVKLISKIGGEVHTPMEIFEFIRREFK”, for which the “soluble on expression in E. coli” value was “soluble”.

For “MSLIKLFLLKLYWAHFSTKQIHQFLMAYPNVIKEEGRKKDSYLCEWVNREENVHLLRKYYAFIKLDHNDIIKELQKLKVSYITYMDSEYPVLLKEIYQFPLLLFYKGNIKLINNMHHLAVVGARDSTSYTQQSLEFLLSNDKSKYLTIVSGLAQGADAMAHQIALKYNLPTIAVLAFGHQTHYPKSTLALRNKIEEKGLVISEYPPHTPIAKYRFPERNRIISGLSKGVLITEAKEQSGSHITIDFALEQNRNVYVLPGSMFNPMTKGNLLRIQEGAKVVLNANDIFEDYYIEGHHHHHH”, the “soluble on expression in E. coli” value is on record as “soluble”.

For the sequence “MGLCMMRTLQSAPSSPLAMPEIQFCLLPDACRPLLGKFYREHQSSMRAASKGQAWVAKQEEIIGALCLTPVADGHWLTGLFVAPPLRGNAVAQRLIDAALLPLSGPVWLFCHPDLQGFYRLAGFETAQRLPQALGERLMRYSRSKPLVALHREA”, the “soluble on expression in E. coli” value is “not soluble”.

In the case of “MTYCHQFLSNLSSLTRFRLHTGNVNGYTQLKVRRFETSAEELAACLDLQLSSNPIADDFKENSCLLLCDNDHIDNYERDEIKITMKVFLSAWDVQQIDQAVTSLKEQLKTKDIEVLILSFPELDLIDGESEEDENNRWFEKVKPLYTYMEKLVETSEIASIGVSDFSARQLKTIIDHFDVKPSINHVRLDGCCQVPPELQALANDNDVQLLVHNDPTPFPTNNIFKTFCEIDSGSQKAVCSPLFETTWLSRYSVWVRKRSIMTSKGYIVQFFRKHD”, the “soluble on expression in E. coli” value is “not soluble”.

Regarding “MAAQIPESDQIKQFKEFLGTYNKLTETCFLDCVKDFTTREVKPEETTCSEHCLQKYLKMTQRISMRFQEYHIQQNEALAAKAGLLGQPR”, the “soluble on expression in E. coli” value was “soluble”.

For “MFDRLKNGEKIAPIVKEVESQITEVHKRADEVIESNQFRVLESFGKHKISDSHFIPTTGYGYDDIGRDTLEKVYADVFGAEAGLVRPQIISGTHAISTALFGILRPGDELLYITGKPYDTLEEIVGVRGKGVGSFKEYNIGYNAVPLTEGGLVDFEAVAAAIHSNTKMIGIQRSKGYATRPSFTISQIKEMIAFVKEIKPDVVVFVDNCYGEFIEEQEPCHVGADLMAGSLIKNPGGGIVKTGGYIVGKEQYVEACAYRLTSPGIGAEAGASLYSLQEMYQGFFLAPHVAGQALKGAIFTAAFLEKLGMNTSPAWNAPRTDLIQSVQFDDKDRMIAFCQAIQYASPINSHFTPYANYMPGYEDDVIMAAGTFIQGASIELSADGPIRPPYVAYVQGGLTYSHVKIAICSAIDELIEKNLLTISLEHHHHHH”, the “soluble on expression in E. coli” value is reported as “soluble”.

With “MGFKCGIVGLPNVGKSTLFNALTKAGIEAANYPFCTIEPNTGVVPMPDPRLDALAEIVKPERILPTTMEFVDIAGLVAGASKGEGLGNKFLANIRETDAIGHVVRCFENDDIVHVAGKIDPLDDIDTINTELALADLDSCERAIQRLQKRAKGGDKEAKFELSVMEKILPVLENAGMIRSVGLDKEELQAIKSYNFLTLKPTMYIANVNEDGFENNPYLDRVREIAAKEGAVVVPVCAAIESEIAELDDEEKVEFLQDLGIEEPGLNRVIRAGYALLNLQTYFTAGVKEVRAWTVSVGATAPKAAAVIHTDFEKGFIRAEVIAYEDFIQFNGENGAKEAGKWRLEGKDYIVQDGDVMHFRFNV”, the “soluble on expression in E. coli” value is “soluble”.

As for “TDFIWNLTWMGSTVTNKVLKLTGESPEIIKGVFSIKEGMPINTYYMAKSAGVDPATGAQLYWVYDKDDNGNITNEYISSDYQKAANSKYYSGSRIPDLYGSINTDFSYKNFDLSILGTYSIGGKVYDSLYAGSMEVMYAGNTWNKHALRRWQQPGDITDVPRIQIGGSYTTSDRFLVDASYFAIKNITLGYTIPKQWLKKAGLESVRIFGSVDNLALFSHLDGMDPQYNFKGETDYSYAPNKTYSVGFEINF”, the “soluble on expression in E. coli” value was “not soluble”.

Consider “MGSDKIHHHHHHLTYNLLEGSGWMLKIYQVDSFTAVPFGGNPAGVCLLDEEIDERLYPRIASEMNLSETAFVRPGDEKNTYGLRWFTPKVEVKMCGHATLATAWIHFTELGVKGEISYETLSGKLGVRYVDGKIEMNFPSDNPYRVRIDEMLGRITGVEGECYYSSLTEKLLYIISSKSKLENLSFDFSLLETCDFGYTVKGLIVSSPGDEKFDFYSRYFAPWVGIDEDPVTGSAHTVLGPFWSEKLGRKNLRACQLSSRRGELDLELLPNSRILILGKAVTVIRGTISI”, for which the “soluble on expression in E. coli” value is listed as “not soluble”.

Consider “MGSDKIHHHHHHMSETTGLQLRSLIKASGDLEVSLVPVSIPEPGPDEVVVRVEATPINPSDLGLLFGAADMSSAKASGTPDAPVITAKVPEAAMKAMAGRLDESMPVGNEGAGTVIKAGSSDAAQALLGKTVAMIGGAMYAQYRLIKAADCLKLQDGTTAAEGASCFVNPLTALGMTETMKREGHKALVHTAAASNLGQMLNRICLKDGIDLVNIVRSEAQAKLLREIGAKYVVDSTAPTFLDDLTEALVKTGATIAFDAIGGGRLAGQILGCMEAAIGKTATGPYSRYGSNVLKQVYIYGSLDTKPTEIVRNFGFAWAAGGWLLFPFLQKIGAADAAKLRARVAAEIKTTFASRYTKVVSLKEALTLDAIAIYNKRATGEKYLIDPTK”, for which the “soluble on expression in E. coli” value is “not soluble”.

Regarding “MPAKDVQICPIAVDTTVFRSRTWDRLKFEIEYGLQRGTTANSYLISADKIALFDPPGESFTDNFVGTLIQRLDLNSLDYVILGHVNANRAHTLKLLLSLAPQATIICSNPAAQNLEKLLADAEVNNPIQVMKGNDHLDLGRGHELTFIPTPSPRYPGQLCTYDPRTEILFTDKLFGAHVCGDQVFDEGWTIYQEDRRYYFDCLLAPAAAQVSAALNKLEAYPAQTYAPSHGPLVRYGLRELTRNYQQWLEHHHHHH”, the “soluble on expression in E. coli” value is recorded as “soluble”.

As for “MSLKKILLLLANGFEAVEASVFTDVLGWNMLEGDGSTLVVTAGMHDKIKCTWNFTVLPEIKIKNVNVDDFEALVIPGGFEEAGFFIDAYSNSFLDLIRTFNAKGKIIASVCVGALSIGKSGILKGRTATTYNLNDRKRQYELSKFGVKILENQPIVIDKNVITSYNPSTAFNVAFTLLEMLTSTENCTKVKKLMGFIEGHHHHHH”, the “soluble on expression in E. coli” value is “soluble”.

For the sequence “MGLFFAQNMMYNHTITVYDRNYELVKVIPDEVDLSKYGHSRFKGKYRGAPVEASFSHNGKYAWISNYQMYGPGFNNPGSDKCHPSQKTDKSFLYRINTETLKIDRVIPVGSVPKFVATSTDENLILVSNWCSWDLSVVDINQNQEIKRIKLGPYPRGIVVDPASETAYVAVMGSYNIAKVNLRDFSVQWLRNIGSSPRHLNIDPAGKYLYASLNGEGKIAKISLPQGNLVKKIATGNAPRSMVLSANGQTLYVVNYGEDTVSKVRTSDMKVLQKVKVEPDPIGITYDPQTREVWVACYSGNIMIFQDLEHHHHHH”, the “soluble on expression in E. coli” value is recorded as “soluble”.

As for “HHHHHSSGLVPRGSHMTNPAYFPQLSQLDVSGEMESTYEDIRLTLRVPWVAFGCRVLATFPGYLPLAWRRSAEALITRYAEQAADELRERSLLNIGPLPNLKERLYAAGFDDGEIEKVRRVLYAFNYGNPKYLLLITALSESMQMRPVGGAEVSSELRASIPKGHPKGMDPLLPLVDATKASTEVQGLLKRVADLHYHHGPASDFQALANWPKVLQIVTDEVLAPVARTEQYDAKSRELVTRARELVRGLPGSAGVQRSELMSMLTPNELAGLTGVLFMYQRFIADITISIIHITECLDGAEAASKSPFPI”, the “soluble on expression in E. coli” value is “soluble”.

Take “GPGSMLDRLSCLGPRTKRWLHNNLRGRYVRVCTREQHSRKQLTPAGGPQGSALRPQLFLHCVDDLLRRMDNIYSASALMYADDLTVVASGAGTHACAAAMPPALSLITAWAAEHNHKINVDKSEAALFHISSHTRSDDEMVNLHLGNGKLRIQSRPVRLLDTTMDQLLNFDYARFHRFK”: the “soluble on expression in E. coli” value is on record as “not soluble”.

Turning to “MPTLKYLPHYPPALVQQAQALFDSGELGALLRSKYPDGHDVQTDKALYQFVSALKQRHLKNAPLPAKVLYDNQQHPLKGTLGTNTTISRVQGGRLKSKSEIRIASLFRELPLPFLQMIVVHELAHLKVRDHDKAFYQLCCHMQPDYHQLEFDLRLWLNWREQRRNLEHHHHHH”, the “soluble on expression in E. coli” value was “soluble”.

Turning to “MSKLKKKEYEQELKKLQVELVKLQEWVKHKGLKVVVLFEGRDAAGKGGVIKRITEKLNHRVCRVVALPAPTEKEKTQWYFQRYVAHLPSAGEIVLFDRSWYNRAGVEKVMGFCTPDEYEEFLRSCPEFERMLQRSGIILLKYWFSVSDEEQEKRFLGRINTPIKRWKFSPMDLESRHRWAEYSEAKDKMFAYTDTKNCPWWVVPSDSKQKARLNCISHLLSQIEYKALEYPPIELPEINKEGYVRAPIDDQTFVPDKY”, the “soluble on expression in E. coli” value is given as “not soluble”.
